The target of data set [1] is T1, amyloid-beta (Abeta) (Amyloid Beta (1-40)) (Homo sapiens, UniProt P05067).
T1 construct: Amyloid Beta (1-40) from Biosource; purchased Biosource
Kind of data set: In vitro ligand binding (ELISA) to immobilized amyloid-beta. The conditions noted are these: ligand 5 micrograms per well; FIG. 7. Here is the method: For example, the RAGE fusion protein may be used in a binding assay to identify potential RAGE ligands. In one example embodiment of such a binding assay, a known RAGE ligand may coated onto a solid substrate (e.g., Maxisorb plates) at a concentration of about 5 micrograms per well, where each well contains a total volume of about 100 microliters (μL). The plates may be incubated at 4° C. overnight to allow the ligand to absorb. Alternatively, shorter incubation periods at higher temperature (e.g., room temperature) may be used. […] The RAGE fusion protein bound to the immobilized ligand may be detected in a variety of ways. […] The bound complex may be detected by adding the alkaline phosphatase substrate, para-nitrophenylphosphate (PNPP), and measuring conversion of PNPP to para-nitrophenol (PNP) as an increase in absorbance at 405 nm. […] In the absence of ligand (i.e., coating with only BSA) there was no increase in absorbance. […] Binding was detected by the addition of an immunodetection complex containing a monoclonal mouse anti-human IgG1 diluted 1:11,000 to a final assay concentration (FAC) of 21 ng/100 μL, a biotinylated goat anti-mouse IgG diluted 1:500, to a FAC of […], and an avidin-linked alkaline phosphatase. […]
On the technique in general: An ELISA detects its analyte on a solid surface through an enzyme-linked reagent.

For data set [2], the system named is allogeneic rejection of transplanted islet cells. Kind of data set: Allogeneic islet transplantation (BALB/c islets in streptozotocin-diabetic B6 mice). In kind it is in vivo, mouse. The conditions noted are these: for day of graft loss, each animal: blood glucose exceeded 250 mg/dl; for day of graft loss, Mean: n 8. Here is the method:
C57BL/6J (6-8 week old) (B6) mice were made diabetic by a single intravenous injection of streptozotocin (STZ) (Sigma Chemical Co., St. Louis, Mo.) at 200 mg/kg. BALB/cJ (6-8 week old) (BALB) mice served as donors for islet transplantation, thus providing an allo-mismatch for islet transplants.
Mice (BALB/c) were anesthetized with ketamine HCl/xylazine HCl solution (Sigma, St. Louis Mo.). After intraductal injection of 3 ml of cold Hank's balanced salt solution (HBSS, Gibco, Grand Island N.Y.) containing 1.5 mg/ml of collagenase P (Roche Diagnostics, Branchburg, N.J.), pancreata were surgically procured and digested at 37° C. for 20 mins. Islets were washed with HBSS and purified by discontinuous gradient centrifugation using Polysucrose 400 (Cellgro, Herndon Va.) having four different densities (26%, 23%, 20%, and 11%). The tissue fragments at the interface of the 20% and 23% layers were collected, washed and resuspended in HBSS. Individual islets, free of attached acinar, vascular and ductal tissues were handpicked under an inverted microscope, yielding highly purified islets for transplantation.
Streptozotocin-induced diabetic C57BL/6 (B6) mice received islet grafts within 2 days of the diagnosis of diabetes. BALB/cJ (6-8 week old) (BALB) mice served as donors for allogeneic islet transplantation. For transplantation, 500-600 freshly isolated islets (i.e., approximately 550 islet equivalents) from donor mice were picked up with an infusion set and transplanted into the subcapular space of the right kidney of a recipient.
Test compounds were administered as soon as the islets were transplanted; administration continued for about 60 days, depending upon how the control animal was faring.
Islet graft function was monitored by serial blood glucose measurements daily for the first 2 weeks after islet transplantation, followed by every other day thereafter. Reversal of diabetes was defined as blood a glucose level of less than 200 mg/dl on two consecutive measurements. Graft loss was determined when blood glucose exceeded 250 mg/dl on two consecutive measurements.

Where [3] appears, read: 300 ug + 30 ug qod ip (Group 3).
Setting [4] is: 300 ug LD + 100 ug qod ip (Group 1).

Where “and” joins values, the source holds several entries; their conditions need not be identical. Equal entries are not always repeated.

T1 sequence (P05067 672-711): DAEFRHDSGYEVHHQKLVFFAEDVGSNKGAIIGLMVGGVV

B1: TTP-4000: four domain RAGE fusion protein: human RAGE V and C1 domains with interdomain linkers (to residue 251) fused to human IgG1 CH2 and CH3; SEQ ID NO: 34/56 (protein, listed as Homo sapiens)
chain: QNITARIGEPLVLKCKGAPKKPPQRLEWKLNTGRTEAWKVLSPQGGGPWDSVARVLPNGSLFLPAVGIQDEGIFRCQAMNRNGKETKSNYRVRVYQIPGKPEIVDSASELTAGVPNKVGTCVSEGSYPAGTLSWHLDGKPLVPNEKGVSVKEQTRRHPETGLFTLQSELMVTPARGGDPRPTFSCSFSPGLPRHRALRTAPIQPRVWEPVPLEEVQLVVEPEGGAVAPPSVFLFPPKPKDTLMISRTPEVTCVVVDVSHEDPEVKFNWYVDGVEVHNAKTKPREEQYNSTYRVVSVLTVLHQDWLNGKEYKCKVSNKALPAPIEKTISKAKGQPREPQVYTLPPSRDELTKNQVSLTCLVKGFYPSDIAVEWESNGQPENNYKTTPPVLDSDGSFFLYSKLTVDKSRWQQGNVFSCSVMHEALHNHYTQKSLSLSPGK
As for B1, the “binding to immobilized amyloid-beta (absorbance at 405 nm)” value in data set [1] is reported as “specifically interact”. Moreover, in data set [2] (setting [3]), the “day of graft loss, each animal” value was 13 day and 14 day and 12 day (2×) and 11 day (2×) and 8 day (2×); the “day of graft loss, Mean” value was determined as 11.125 days. In addition, in data set [2] (setting [4]), the “day of graft loss, each animal” value is 14 day (2×) and 16 day (2×) and 13 day (2×) and 12 day and 15 day; the “day of graft loss, Mean” value was 14.125 days.

Values taken from patent publication US20090004190A1, “Rage Fusion Proteins And Methods Of Use” (priority 2006, published 2009).
